Several values for one entry are separate records, joined by “and”; a condition that tells them apart may be missing. Equal values may be shown once.

One experiment deals with DoHH2 cells. Put plainly: DoHH2 xenograft tumor volume reduction. It is filed as in vivo. The following applies: Table 16 study; follicular lymphoma DOHH2 xenograft, CB17 SCID mice; 600 or 300 μg/m^2. From the text:
In a similar study, using the same xenograft study protocol as disclosed in the above examples, varying the TDCs and doses administered, the efficacy of TDCs in follicular lymphoma DOHH2 xenografts in CB17 SCID mice was studied.

The next experiment deals with Granta-519 cells. The experiment is described as follows: Granta-519 xenograft tumor volume reduction. It is filed as in vivo, SCID mice. The following applies: Table 14 study, FIG. 19, 100 μg/m^2 drug at Day 0. As to the method: The ability of the thiomab drug conjugates prepared according to Example 11 to reduce B-cell tumor volume in xenograft models was tested according to the procedure disclosed in Example 9, herein. To SCID mice having Granta-519 cell xenograft tumors, control and anti-CD22 humanized 10F4v3 thiomab drug conjugates were administered at Day 0 in the doses shown in Table 14, below. The control HC(A118C) thiomab was anti-HER2 4D5 antibody.
Additional thiomab drug conjugates were tested in Granta-519 xenografts in CB17 SCID mice using the same protocol, although different drug doses were tested. The control antibody or control thiomab was anti-HER24D5 antibody or HC(A118C) thiomab.

Experiment [1] deals with T1, human CD22-beta-ECD-His tagged soluble antigen (Homo sapiens, UniProt P20273, A486R/Y639H).
T1 sequence (P20273 22-681 A486R/Y639H): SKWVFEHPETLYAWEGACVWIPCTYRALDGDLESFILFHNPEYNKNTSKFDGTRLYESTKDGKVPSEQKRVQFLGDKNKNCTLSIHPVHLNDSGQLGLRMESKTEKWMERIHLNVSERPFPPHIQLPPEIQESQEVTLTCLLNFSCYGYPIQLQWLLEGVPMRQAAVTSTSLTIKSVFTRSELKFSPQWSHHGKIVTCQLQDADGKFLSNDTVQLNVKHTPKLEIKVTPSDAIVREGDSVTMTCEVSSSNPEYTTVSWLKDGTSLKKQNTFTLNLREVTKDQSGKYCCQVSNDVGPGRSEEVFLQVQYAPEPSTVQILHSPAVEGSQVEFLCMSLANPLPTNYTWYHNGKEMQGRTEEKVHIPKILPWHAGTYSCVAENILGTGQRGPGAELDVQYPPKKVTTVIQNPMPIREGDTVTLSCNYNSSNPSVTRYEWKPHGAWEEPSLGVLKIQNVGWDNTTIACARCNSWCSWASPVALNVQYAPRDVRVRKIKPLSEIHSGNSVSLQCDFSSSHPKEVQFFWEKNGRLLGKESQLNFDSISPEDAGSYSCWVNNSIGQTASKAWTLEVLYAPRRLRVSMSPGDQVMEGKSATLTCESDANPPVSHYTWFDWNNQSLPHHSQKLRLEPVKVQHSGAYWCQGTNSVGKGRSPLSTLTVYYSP
The experiment is described as follows: BIACORE surface plasmon resonance binding to soluble CD22 ECD. To be noted: BIACORE 3000, 25° C., antibody coupled to chip, soluble CD22 ECD injected; one-to-one Langmuir model. The protocol:
The binding affinity of murine and humanized 10F4 antibody for soluble CD22 extracellular domain (ECD) was determined by surface plasmon resonance measurement using a BIACORE® 3000 system (Biacore, Inc., Piscataway, N.J.). Briefly, carboxymethylated dextran biosensor chips (CMS, Biacore Inc.) were activated with N-ethyl-N′-(3-dimethylaminopropyl)-carbodiimide hydrochloride (EDC) and N-hydroxysuccinimide (NHS) according to the supplier's instructions. These activated chips were coated with anti-CD22 IgG1 antibody 10F4 (murine or humanized) by dilution to 5 μg/ml with 10 mM sodium acetate, pH 4.8, before injection at a flow rate of 5 μl/minute to achieve approximately 500 response units (RU) of coupled antibody. Next, 1M ethanolamine was injected to block unreacted groups. […] Association rates (kon) and dissociation rates (koff) were calculated using a simple one-to-one Langmuir binding model (BIAevaluation Software version 3.2). The equilibrium dissociation constant (Kd) was calculated as the ratio koff/kon. Anti-CD22 antibody, RFB4, was used as a control (Chemicon International, Inc., Temecula, Calif., catalog no. CBL147).
(Surface plasmon resonance follows binding to a sensor surface in real time, without labels.)

Experiment [2] concerns cynomolgus monkey (cyno) CD22 expressed on the surface of CHO cells. The experiment is described as follows: Cell-based competitive binding assay with 125I antibody, Scatchard analysis. To be noted: 4 hours at 4° C. The protocol:
Briefly, CHO cells stably expressing full length human CD22 (SEQ ID NO:27) or cynomolgus monkey (cyno) CD22 (SEQ ID NO:31). […] A cell-based, competitive binding assay was performed using serially diluted, unlabeled anti-CD22 antibody. Antibodies were allowed to bind to the cells for 4 hours at 4° C. Binding affinity, KD, of the antibodies was determined in accordance with standard Scatchard analysis performed utilizing a non-linear curve fitting program (see, for example, Munson et al., Anal Biochem, 107: 220-239, 1980).

The test system of the next experiment is BJAB-luc cells. Put plainly: BJAB-luc xenograft tumor volume reduction. It is filed as in vivo, SCID mice. To be noted: single I.V. treatment, 32 days. As to the method: Sixty-five SCID mice were injected with 2×10^7 BJAB-luc cells subcutaneously in a volume of 0.2 ml per mouse in the flank. Cells were suspended in HBSS. When the mean tumor size reached 100-200 mm^3, mice were randomly grouped into four groups of 9 mice each and given a single I.V. treatment (via the tail vein) of the anti-CD22 or control antibody indicated in Table 4, below.
Mean tumor volume was monitored in each treatment group for 32 days post-antibody injection. Tumor measurements were taken with calipers. Efficacy of the toxin-conjugated anti-CD22 antibodies was determined by comparison to the control and unconjugated antibodies. […]

[3] abbreviates: Table 4 study, 200 μg/m^2 DM1 (naked antibody 3.4 mg/kg).
Setting [4] is: Table 5 study, 200 μg/m^2 DM1 (naked antibody 4.5 mg/kg).

cynomolgus monkey (cyno) CD22 expressed on the surface of CHO cells, sequence (as listed by the source): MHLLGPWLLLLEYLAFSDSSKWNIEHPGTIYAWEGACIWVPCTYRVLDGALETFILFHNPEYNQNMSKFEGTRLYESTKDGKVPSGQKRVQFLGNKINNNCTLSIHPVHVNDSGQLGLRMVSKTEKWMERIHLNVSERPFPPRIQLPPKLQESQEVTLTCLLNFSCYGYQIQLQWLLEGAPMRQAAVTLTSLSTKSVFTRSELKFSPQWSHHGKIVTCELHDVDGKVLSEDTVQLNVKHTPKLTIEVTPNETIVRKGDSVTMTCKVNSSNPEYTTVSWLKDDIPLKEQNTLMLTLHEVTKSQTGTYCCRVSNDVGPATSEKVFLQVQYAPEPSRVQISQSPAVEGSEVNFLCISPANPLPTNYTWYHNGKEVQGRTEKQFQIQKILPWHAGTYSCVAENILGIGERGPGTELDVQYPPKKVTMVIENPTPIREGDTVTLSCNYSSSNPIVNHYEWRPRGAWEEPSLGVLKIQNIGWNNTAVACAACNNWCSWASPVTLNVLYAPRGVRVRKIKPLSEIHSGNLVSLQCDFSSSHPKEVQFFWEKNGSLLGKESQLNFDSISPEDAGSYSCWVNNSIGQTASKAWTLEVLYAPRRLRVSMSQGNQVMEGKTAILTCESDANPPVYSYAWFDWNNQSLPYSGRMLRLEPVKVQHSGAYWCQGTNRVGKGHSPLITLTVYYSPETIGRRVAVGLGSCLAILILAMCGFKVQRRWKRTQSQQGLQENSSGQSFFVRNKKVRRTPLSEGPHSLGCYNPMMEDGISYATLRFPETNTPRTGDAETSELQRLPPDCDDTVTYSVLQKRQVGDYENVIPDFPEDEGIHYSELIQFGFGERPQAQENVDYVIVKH

For the molecule “Thio 10F4v3-HC(A118C)-BMPEO-DM1: conjugation of A118C thio hu HC-10F4v3 and bmpeo-DM1”, in the experiment with DoHH2 cells, the “efficacy on mean tumor volume” value is on record as “intermediate efficacy”.
Turning to “Thio 10F4v3-LC(V205C)-MCvcPAB-MMAE: conjugation of V205C thio hu LC-10F4v3 and MC-val-cit-PAB-MMAE”, the mean tumor volume result is given as “reduction in mean tumor volume for the duration of the study” with Granta-519 cells and “decrease in tumor volume during the study” in the experiment with Granta-519 cells (listed as 10F4-LC-V210C-MCvcPAB-MMAE).

B1: Chimeric 10F4: chimeric 10F4 anti-CD22 antibody (antibody, V domains shown)
VH: QVQLQQSGPELVKPGASVKISCKASGYEFSRSWMNWVKQRPGQGREWIGRIYPGDGDTNYSGKFKGKATLTADKSSSTAYMQLSSLTSVDSAVYFCARDGSSWDWYFDVWGAGTTVTVSS
VL: DILMTQTPLSLPVSLGDQASISCRSSQSIVHSNGNTFLEWYLQKPGQSPKLLIYKVSNRFSGVPDRFSGSGSGTDFTLKISRVEAEDLGVYYCFQGSQFPYTFGGGTKVEIK
For B1, in experiment [1], the “koff/10^−4” value came to 4.2 and the “kon/10^5” value is listed as 0.26.

B2: Humanized 10F4v1: humanized 10F4 version 1, VH SEQ ID NO:16, VL SEQ ID NO:17, IgG1 (antibody, V domains shown)
VH: EVQLVESGGGLVQPGGSLRLSCAASGYEFSRSWMNWVRQAPGKGLEWVGRIYPGDGDTNYSGKFKGKATLTADKSSSTAYLQMNSLRAEDTAVYYCARDGSSWDWYFDYWGQGTLVTVSS
VL: DIQMTQSPSSLSASVGDRVTITCRSSQSIVHSNGNTFLEWYQQKPGKAPKLLIYKVSNRFSGVPSRFSGSRSGTDFTLTISSLQPEDFATYYCFQGSQFPYTFGQGTKVEIKR
modifications: IgG1 constant regions; sequence is synthesized
Consider B2, for which, in experiment [2] (listed as Hu 10F4v1), the equilibrium dissociation constant (Kd) (usually a measure of binding affinity in units of concentration) was 1.4 nM and 1.8 nM. In the experiment on BJAB-luc cells (setting [3]), the “CR (number of animals attaining complete remission)” value is listed as 0, the “PR (number of animals with tumor regressed 50-99% from its initial volume)” value stood at 0 and the “TI (tumor incidence at the last time point; tumor-bearing animals / total animals)” value is 9/9.

B3: Humanized 10F4v2: humanized 10F4 version 2, N28V in HVR-L1, VH SEQ ID NO:16, VL SEQ ID NO:18, IgG1 (antibody, V domains shown)
VH: EVQLVESGGGLVQPGGSLRLSCAASGYEFSRSWMNWVRQAPGKGLEWVGRIYPGDGDTNYSGKFKGKATLTADKSSSTAYLQMNSLRAEDTAVYYCARDGSSWDWYFDYWGQGTLVTVSS
VL: DIQMTQSPSSLSASVGDRVTITCRSSQSIVHSVGNTFLEWYQQKPGKAPKLLIYKVSNRFSGVPSRFSGSRSGTDFTLTISSLQPEDFATYYCFQGSQFPYTFGQGTKVEIKR
modifications: IgG1 constant regions; sequence is synthesized
Molecule B3 yielded a dissociation constant Kd in experiment [2] of 2.1 nM. Further, in the experiment on BJAB-luc cells (setting [4]), the “CR (number of animals attaining complete remission)” value came out at 0, the “PR (number of animals with tumor regressed 50-99% from its initial volume)” value stood at 0 and the “TI (tumor incidence at the last time point; tumor-bearing animals / total animals)” value is 9/9.

The record behind these values is patent US8394607B2, “Anti-CD22 antibodies and immunoconjugates and methods of use” (Genentech, Inc., priority 2006, dated 2013).
